Where two headings read alike, the source gives them in different places.
What was measured:
tvMyb2 40-156 [1] = molecular target: T1, tvMyb2 40-156 (Trichomonas vaginalis, UniProt Q58HP3 40-156); assay: X-ray crystallography
T1 sequence: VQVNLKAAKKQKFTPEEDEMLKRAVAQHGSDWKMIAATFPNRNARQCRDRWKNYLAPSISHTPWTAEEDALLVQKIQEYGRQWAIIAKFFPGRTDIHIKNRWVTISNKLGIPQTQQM

tvMyb2 40-156 [2] = molecular target: T1, tvMyb2 40-156; assay: X-ray crystallography; remark: listed apart in the source

Row | Binder | binding result (tvMyb2 40-156 [1]) | binding result (tvMyb2 40-156 [2])
1 | MRE-1-12 (dsDNA) DNA 1: ATAACGATATTT DNA 2: AAATATCGTTAT | binds | –
2 | MRE-2-13 (dsDNA) DNA 1: CTGTATCGTCTTG DNA 2: CAAGACGATACAG | – | binds

Source: publication PMC3203581
